Reference: the supplement of paper PMC9170038

System: MS2 coat protein
Experiment: apparent KD of MS2 coat protein; designed switch direction (-1 OFF switch, 1 ON switch): 1; higher = weaker reporter binding
Summary of the method: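 The reported apparent KD is a per-design median over clusters, from curve fits of normalised cluster fluorescence. Protein titrations used SNAP-549-labelled MS2 coat protein, doubled from 0.7 or 1.5 nM to 3 µM, in Tris-HCl pH 7.5 buffer with KCl, MgCl2, BSA, DTT, tRNA and Tween-20, with no input, 200 uM small-molecule ligand, or an oligonucleotide input. The RNA switches were transcribed on Illumina chips by stalled E. coli RNA polymerase.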

[1] = input ligand: microRNA oligo, concentration not stated
[2] = Eterna round: R95, input ligand: FMN 200 uM
[3] = Eterna round: R95, input ligand: microRNA oligo, concentration not stated
[4] = Eterna round: R95, input ligand: none

Sequence | apparent KD of MS2 coat protein (input ligand: FMN 200 uM) | apparent KD of MS2 coat protein [1] | apparent KD of MS2 coat protein (input ligand: none) | apparent KD of MS2 coat protein [2] | apparent KD of MS2 coat protein [3] | apparent KD of MS2 coat protein [4]
CUGAGCAAUCUAGGAUAUCACGUCGAUUAGACGUGAGAAGGAGAUCAUAACAUGAGGAUCACCCAUGUAUUACAUGAAGCUCAG [SSNG1/7-A2] (Eterna round: R96, puzzle: Same State NG 1) | 11.7 nM | 13.8 nM | 19.1 nM | – | – | –
CUGAGCAGUCAAGGAUAUCACGUCGAUUAGACGUGAGAAGGUGAUCAUUACAUGAGGAUCACCCAUGUGUUACAUGGAGCUCAG [Brourd's SSNG1/1-A2 mod 5] (Eterna round: R96, puzzle: Same State NG 1) | 413 nM | 49.1 nM | 358 nM | – | – | –
CUGAGCGAUCAAGGAUAUCACGUCGUUUAGACGUGAGAAGGUGAUAAUUACAUGAGGAUCACCCAUGUAUAACAUGAAGCUCAG [SSNG1/9-A3] (Eterna round: R96, puzzle: Same State NG 1) | 14 nM | 16.4 nM | 21 nM | – | – | –
CUGUGUUGCGGGCAGGAUAUGUACUUGAGUACAUGAGGAUCACCCAUGUGCGGGUGUUUCACCCGACAGAAGGGCCUAUCGCGAC [JL-ss2-3.24 ViennaUCT mod] (puzzle: Same State 2) | – | – | – | 140 nM | 395 nM | 329 nM
CUUUCUCUUGCAGGAUAUCCUAGUCUUCGGUUAGGAGAAGGGCAAGGAAACUUGCUAAGCAAGUCUGUAACAGAGAUCCUUCCU [pwkr ssNG1 F9.2] (Eterna round: R96, puzzle: Same State NG 1) | 124 nM | 78.2 nM | 164 nM | – | – | –
CUUUUUCCUUUUACAUGAGGAUCACCCAUGUUUUCAUAUUGAGAGGAUAUCGUAUUUGGAAUUUUCGAGAAGGCUCAUUUGUAU [JR_SSNG3_Sub075] (Eterna round: R96, puzzle: Same State NG 3) | 39.4 nM | 25.5 nM | 28.9 nM | – | – | –
GAAAAGACAUGAGGAUCACCCAUGUGGUAGACAGCUAGACGCAAGGAUAUGCAUGUGAUUCUCAUGCAGAAGGUGCUUCUAGGU [Eternabot solution 12] (Eterna round: R96, puzzle: Same State NG 3) | 37.6 nM | 53.3 nM | 68.6 nM | – | – | –
GAAAAGCAGAGAGGAUAUGUCACUCAUGCCGUGACACAUGAGGAUCACCCAUGUUCAAUCCGGCCGCAGAAGGCUCCGCGAAAA [Eternabot solution 25] (Eterna round: R96, puzzle: Same State NG 2) | 8.9 nM | 9.13 nM | 10.8 nM | – | – | –
GAAUUUGAACUACAGGAUAUAUAGCAGAUGACAUGAGGAUCACCCAUGUAAGAGAAAGGAGGGAAAUAGAAGGGUAUGGGAGGUG [JR_SS2_Sub034] (puzzle: Same State 2) | – | – | – | 34.5 nM | 32.9 nM | 37.7 nM
GACAAUCUAUCUGAGGAUAUCAUGAUAAUAACAUGAGGAUCACCCAUGUGCAGGAAAACUGCAUAUGAGAAGGCAGAUAGAUUGA [Mat - Same State 2 - Mod - D14] (puzzle: Same State 2) | – | – | – | 34.2 nM | 62.3 nM | 294 nM
GACUGCGUUAUGAAGGAUAUCCGCGUCUGGACAUGAGGAUCACCCAUGUAUACUUGGAUCGUGCAGGAGAAGGUCAAGGGUGAUU [JR_SS002_Sub1210] (Eterna round: R96, puzzle: Same State 2) | 507 nM | 163 nM | 243 nM | – | – | –
GAGAGACGAUUAGGAUAUCCGGUGAUAAUGAUAGGAGAAGGAAUUGACAUGAGGAUCACCCAUGUGGGAAUAAUCCAGAGAGAG [Parity 24 - Jieux - Same State NG 1] (Eterna round: R96, puzzle: Same State NG 1) | 86.5 nM | 66.5 nM | 89.7 nM | – | – | –
GAGAGAGGGUGAGGAUAUUUAGUGAUAAUGAUAGGAGAAGGCACAGACAUGAGGAUCACCCAUGUGGGAAUAAUCCAGAGAGAG [Parity 9 - Jieux - Same State NG 1] (Eterna round: R96, puzzle: Same State NG 1) | 199 nM | 31.9 nM | 186 nM | – | – | –
GAGAGUGAAGUACAGGAUAUGAGGAGAGGAACAUGAGGAUCACCCAUGUGAAAUAGAGAGAAGAGUCAGAAGGGUAGGGAAGAGA [JR_SS2_Sub004] (puzzle: Same State 2) | – | – | – | 32.8 nM | 31.4 nM | 23 nM
GAGGGACAGACCAACAUGAGGAUCACCCAUGUCCUCGCAGGUCAGGAUAUCCGUCCAACAGGCAAGGAGAAGGGACGGUGAACC (Eterna round: R96, puzzle: Same State NG 3) | 522 nM | 1200 nM | 724 nM | – | – | –
GAGGGCGAAAGCAACAUGAGGAUCACCCAUGUCCUCGGAGGGCAGGAUAUCCGGCGGUAGCCGAAGGAGAAGGGUCGAAAAGAA [AK SSNG3-V2-34] (Eterna round: R96, puzzle: Same State NG 3) | 34.8 nM | 292 nM | 61.1 nM | – | – | –
GAGGGCGAAAGCGACAUGAGGAUCACCCAUGUCCUCGGAGGACAGGAUAUCCGGCAAAAGCCGAAGGAGAAGGGUCGAAAAGAA [AK SSNG3-V2-37] (Eterna round: R96, puzzle: Same State NG 3) | 47.2 nM | 69.7 nM | 136 nM | – | – | –
GAGUAGUUGAUAGGAUAUUGAUUGUUGUAGGAUCAAGAAGGAUCUAACAUGAGGAUCACCCAUGUAGGACUAUUCCUGUGUAUC [Parity 85 - Jieux - Same State NG 1] (Eterna round: R96, puzzle: Same State NG 1) | 18.6 nM | 13.7 nM | 21.4 nM | – | – | –
GAGUGGAGGUAAGGAUAUACAAUGAUAAUCACAGUAGAAGGUACUAACAUGAGGAUCACCCAUGUAGGACUAUACCAGAGAGGG [Parity 39 - Jieux - Same State NG 1] (Eterna round: R96, puzzle: Same State NG 1) | – | 13 nM | – | – | – | –
GAGUGGCAGUUAGGAUAUAUAGUGAUAAUCACAGUAGAAGGAACUGACAUGAGGAUCACCCAUGUAGGACUAAUCCAGAGAGAG [Parity 41 - Jieux - Same State NG 1] (Eterna round: R96, puzzle: Same State NG 1) | 65.7 nM | 29.8 nM | 44.2 nM | – | – | –
GAGUGGUGGAGAGGAUAUACAUUGUUAUUCACUGUAGAAGGUUCUAACAUGAGGAUCACCCAUGUAGGACUAUUCCUGAGUUUU [Parity 56 - Jieux - Same State NG 1] (Eterna round: R96, puzzle: Same State NG 1) | – | 8.92 nM | – | – | – | –
GAUAGACAUGAGGAUCACCCAUGUGACAAAACCACAGGAUAUCAUGCAGGCGUAACUGCAUGAGAAGGGUGAGACU [Quanve] (puzzle: Same State 1) | – | – | – | 61.1 nM | 20.6 nM | 35.8 nM
GCAAAGGCGGUAGGAUAUCUAGGAUAUGGGAAAGACUAAGUCUGUAGGUCACCUAACCCAGAAGGAGAGAAGGACACCGAAAGG [pwkr ssNG2 2FMN + F9.25] (Eterna round: R96, puzzle: Same State NG 2) | 617 nM | 9.18 nM | 73.7 nM | – | – | –
GCAUCACAUGAGGAUCACCCAUGUCUUCGGAGCCGAGGAUAUGGUCACUGUAAACAGUGGCCAGAAGGCGGGAUGC [SS1 - Son of Teenbexe v1] (puzzle: Same State 1) | – | – | – | 30.2 nM | 41.5 nM | 61.3 nM
GCCAACUCAUGAGGAUAUGGCACCUUAUUGGUGCCAGAAGGCAUGUCUAUUGACAUGAGGAUCACCCAUGUAUUAUAGUUGGCA [Fiskers NG1ss - 23] (Eterna round: R96, puzzle: Same State NG 1) | 83.9 nM | 192 nM | 859 nM | – | – | –
GCCAACUCAUGAGGAUAUGGCACCUUAUUGGUGCCAGAAGGCAUGUCUAUUGACAUGAGGAUCACCCAUGUAUUAUUGUUGGCA [Fiskers NG1ss - 24] (Eterna round: R96, puzzle: Same State NG 1) | 80 nM | 717 nM | 893 nM | – | – | –
GCCCGACUCACAGGAUAUGUACCGCCCGAAACAACAGAAGGGUGAGAUCCGGCAUGCACUGACAUGAGGAUCACCCAUGUCCUU [Gebege] (Eterna round: R96, puzzle: Same State NG 1) | 520 nM | 311 nM | 765 nM | – | – | –
